Columns and labels:
γ-secretase = test: AICD production in transfected HEK293 cells treated with NEM (immunoblot); assay type: cell-based, human; details: NEM for 60 minutes, n=3
Experimental: (§1) Brain homogenates were lysed in a buffer (25 mM HEPES, pH 7.5, 150 mM NaCl, 2 mM EDTA, protease inhibitor cocktail and 10% glycerol) containing 1% Nonidet P40. Immunoblotting was performed as previously described (Nishimura, M., et al. Nat Med 5, 164-169 (1999)).
HEK293 cells transfected with control, ILEI siRNA, or ILEI cDNA (respectively denoted by ILEI-k/d and ILEI-oe in the figure) were treated with N-ethyl maleimide (NEM) for 60 minutes to block degradation of AICD. The AICD production was inhibited by a treatment with DAPT, which is a γ-secretase inhibitor (D in the figure). β-Actin was used as a loading control. The graphs show quantified AICD signal intensities (n=3).

endogenous Notch-1 = test: γ-secretase cleavage of endogenous Notch-1 in mouse embryonic fibroblasts (NICD immunoblot); assay type: cell-based; details: MEFs, EDTA 1.5 mM; DAPT 1 μM; n=3
Experimental: as §1
Next, γ-secretase cleavage of endogenous Notch-1 in mouse embryonic fibroblasts (MEFs) was examined (FIG. 1d). Treatment of MEF with EDTA (1.5 mM) induces cleavage of TMIC (transmembrane/intracellular Notch) and generates NEXT (Notch extracellular truncation). NEXT is further cleaved by γ-secretase to release NICD (Notch intracellular domain). The NICD production was inhibited by DAPT (1 μM). β-Actin was used as a loading control. The graphs show quantified NICD signal intensities (n=3).

ILEI-Tg mice [1] = test: Immunoblotting of brain homogenates of ILEI-Tg mice (APP-CTF, NICD); assay type: in vivo, mouse; details: 6-week-old ILEI-Tg mice versus wild-type littermates
ILEI-Tg mice [2] = test: Aβ40 and Aβ42 in brain homogenate fractions of ILEI-Tg mice (ELISA); assay type: in vivo, mouse; details: Tris-buffered saline-soluble and insoluble fractions, 8 months old, n=5, versus wild-type littermates
ILEI-Tg mice [3] = details: mouse, in vivo
[4] = system: stable ILEI-knockdown HEK293 cells; test: Aβ secretion after adding purified ILEI-His to culture solution of stable ILEI-knockdown HEK293 cells; assay type: cell-based, human
Experimental: Using this cell culture solution, the measurement of secretory Aβ from the cells was performed according to ELISAs specific for human Aβ40 and Aβ42 (Wako Pure Chemical Industries).
Purified ILEI-His was added into the culture solution of stable ILEI-knockdown HEK293 cells at the indicated concentration (μg ml^−1).

Molecule	AICD production (γ-secretase)	NICD production (Notch cleavage by γ-secretase) (endogenous Notch-1)	NICD levels in the brains (ILEI-Tg mice [1])	decrease in APP-CTF levels in the brains (ILEI-Tg mice [1]) [%]	Aβ40 level in brain homogenates (ILEI-Tg mice [2])	Aβ42 level in brain homogenates (ILEI-Tg mice [2])	development, fertility and gross morphology (ILEI-Tg mice [3])	Aβ secretion ([4]; at a concentration of 7 μg ml^−1)	Aβ secretion ([4]; purified protein added to the culture solution at the indicated concentrations (μg ml^−1))
C[C@H](NC(=O)Cc1cc(F)cc(F)c1)C(=O)N[C@H](C(=O)OC(C)(C)C)c1ccccc1 [DAPT, reference compound]	inhibited	inhibited	–	–	–	–	–	–	–
ILEI: interleukin-like epithelial-mesenchymal transition inducer, secretory protein, SEQ ID NO: 1 (mature: SEQ ID NO: 2) (protein, listed as Homo sapiens) MRVAGAAKLVVAVAVFLLTFYVISQVFEIKMDASLGNLFARSALDTAARSTKPPRYKCGISKACPEKHFAFKMASGAANVVGPKICLEDNVLMSGVKNNVGRGINVALANGKTGEVLDTKYFDMWGGDVAPFIEFLKAIQDGTIVLMGTYDDGATKLNDEARRLIADLGSTSITNLGFRDNWVFCGGKGIKTKSPFEQHIKNNKDTNKYEGWPEVVEMEGCIPQKQD	–	does not perturb Notch cleavage	no alteration	30	significantly reduced	significantly reduced	normal development and fertility without any gross morphological defect	–	–
ILEI-His: purified recombinant ILEI protein from the pcDNA6/V5-His construct, added from outside the cells (protein, UniProt Q92520 25-227, looked up, V5-His tag, purified recombinant ILEI protein from the pcDNA6/V5-His construct, added from outside the cells) Protein FAM3C: QVFEIKMDASLGNLFARSALDTAARSTKPPRYKCGISKACPEKHFAFKMASGAANVVGPKICLEDNVLMSGVKNNVGRGINVALANGKTGEVLDTKYFDMWGGDVAPFIEFLKAIQDGTIVLMGTYDDGATKLNDEARRLIADLGSTSITNLGFRDNWVFCGGKGIKTKSPFEQHIKNNKDTNKYEGWPEVVEMEGCIPQKQD	–	–	–	–	–	–	–	decreased to almost the same extent as in the case of introducing siRNA-resistant ILEI cDNA	diminished Aβ secretion in a dose-dependent manner

From patent US9649360B2, “Pharmaceutical composition for the treatment and/or prevention of disease involving abnormal accumulation of amyloid β protein” (SHIGA UNIVERSITY OF MEDICAL SCIENCE, priority 2012, dated 2017)
